In patent US20040162413A1 (published 2004):
Substitutions are numbered along the chain they refer to. Names and notes keep the numbering of the source.

B1: Y49K, derivative of clone CW43 made by site-directed mutagenesis (anti-CD40 Fab) (Fab, V domains shown)
VH: QVQLVQSGPELKKPGASVKVSCKASGYAFTTTGMQWVRQAPGQGLEWMGWINTHSGVPKYVEDFKGRFVFSLDTSVSTAYLQISSLKAEDTAVYFCARSGNGNYDLAYFRYWGQGTLVTVSS
VL: EIVLTQSPATLSLSPGERATLSCRASQSISDYLHWYQQKPGQAPRLLIKYASHSISGIPARFSGSGSGTDFTLTISSLEPEDFAVYYCQHGHSFPRTFGGGTKVEIK
notes: Fab, human constant regions; framework identical to clone 1H11; also called clone Y49K
B2: NMC-4 antibody (parental/donor antibody) (antibody, V domains shown)
VH: VQLLESGPGLVAPSQSLSITCTVSGFSLTDYGVDWVRQPPGKGLEWLGMIWGDGSTDYNSALKSRLSITKDNSKSQVFLKMNSLQTDDTARYYCVRDPADYGNYDYALDYWGQGTSVTVS
VL: SSLSASLGDRVTISCSASQDINKYLNWYQQKPDGAVKLLIFYTSSLHSGVPSRFSGSGSGTDYSLTISNLEPEDIATYYCQQYEKLPWTFGGGTKLEVK
notes: also called parental/donor NMC-4 antibody
B3: anti-vWF combinatorial library clone C1 Fab (Fab, V domains shown)
VH: EVQLVESGGGLVQPGGSLRLSCAASGFSLGDYGVDWVRQAPGKGLEWVGMIWPDGSTDYNSALQSRFTISRDDSKNSLYLQMNSLKTEDTAVYYCARDPADYGNYNYALDYWGQGTTVTVS
VL: DIQMTQSPSSLSASVGDRVTITCSASQDINDYLNWYQQKPGKAPKLLIYNTSSLHSGVPSRFSGSGSGTDFTLTISSLQPEDFATYYCQQYEDLPWTFGGGTKVEIK
notes: Fab with human CL and CH1
B4: anti-vWF combinatorial library clone C4 Fab (Fab, V domains shown)
VH: B3 VH with P53G, T57V, Y59V
VL: B3 VL with N50G
notes: Fab with human CL and CH1
B5: chimeric anti-CD40 Fab (variable regions of murine mAb 40.2.220) (Fab, V domains shown)
VH: QIQLVQSGPELKKPGETVRISCKASGYAFTTTGMQWVQEMPGKGLKWIGWINTHSGVPKYVEDFKGRFAFSLETSANTAYLQISNLKNEDTATYFCVRSGNGNYDLAYFAYWGQGTLVTVSA
VL: DIVLTQSPATLSVTPGDRVSLSCRASQSISDYLHWYQQKSHESPRLLIKYASHSISGIPSRFSGSGSGSDFTLSINSVEPEDVGIYYCQHGHSFPRTFGGGTKLEIK
notes: Fab expressed in bacteria from vector M13IX104CS (human kappa and gamma 1 constant regions, terminal cysteines replaced by serine); purified Fabs carry a six-histidine tag at the C-terminus of the H chain; also called chimeric Fab; chimeric CD40

Tests used:
[1] = molecular target: T1, CD40-Ig fusion protein (UniProt P25942 21-193); test: SPR (BIAcore), CD40-Ig immobilised
T1 construct: also called CD40-Ig antigen; CD40 receptor; not shown: Ig part, not described; in the ELISA and capture lift it is detected with goat anti-mouse IgG2b conjugate

[2] = molecular target: T1, CD40-Ig fusion protein; test: SPR (BIAcore), CD40-Ig immobilised, purified Fab in solution
[3] = molecular target: T2, human von Willebrand Factor (human, UniProt P04275 764-2813); test: ELISA: human vWF captured on goat anti-human vWF coated plates, Fab dilutions, goat anti-human kappa alkaline phosphatase, O.D. 560 after 30 min
T2 construct: In the ELISA captured on plates by goat anti-human vWF; biotinylated in the plaque lift; also called vWF; human vWF

T1 sequence (P25942 21-193): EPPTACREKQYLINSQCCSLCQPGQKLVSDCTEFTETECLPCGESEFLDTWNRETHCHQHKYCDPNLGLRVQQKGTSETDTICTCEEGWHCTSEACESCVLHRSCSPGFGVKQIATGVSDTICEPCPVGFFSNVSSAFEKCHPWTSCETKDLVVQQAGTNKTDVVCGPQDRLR

Binder | fold lower affinity against CW43 [1] [fold] | Kd [2] [nM] | EC50 (read off the curve) [3] [µg/mL]
B1 | 5 | 53.4 | –
B2 | – | – | ~0.03
B3 | – | – | ~0.02
B4 | – | – | ~0.02
B5 | – | 48.3 | –
